This note sets out measurements from IntAct's records for PubMed 22252508.

The labels stand for the following.
B1: DNA mismatch repair protein Mlh1 (Homo sapiens), P40692 (parent)
chain: MSFVAGVIRRLDETVVNRIAAGEVIQRPANAIKEMIENCLDAKSTSIQVIVKEGGLKLIQIQDNGTGIRKEDLDIVCERFTTSKLQSFEDLASISTYGFRGEALASISHVAHVTITTKTADGKCAYRASYSDGKLKAPPKPCAGNQGTQITVEDLFYNIATRRKALKNPSEEYGKILEVVGRYSVHNAGISFSVKKQGETVADVRTLPNASTVDNIRSIFGNAVSRELIEIGCEDKTLAFKMNGYISNANYSVKKCIFLLFINHRLVESTSLRKAIETVYAAYLPKNTHPFLYLSLEISPQNVDVNVHPTKHEVHFLHEESILERVQQHIESKLLGSNSSRMYFTQTLLPGLAGPSGEMVKSTTSLTSSSTSGSSDKVYAHQMVRTDSREQKLDAFLQPLSKPLSSQPQAIVTEDKTDISSGRARQQDEEMLELPAPAEVAAKNQSLEGDTTKGTSEMSEKRGPTSSNPRKRHREDSDVEMVEDDSRKEMTAACTPRRRIINLTSVLSLQEEINEQGHEVLREMLHNHSFVGCVNPQWALAQHQTKLYLLNTTKLSEELFYQILIYDFANFGVLRLSEPAPLFDLAMLALDSPESGWTEEDGPKEGLAEYIVEFLKKKAEMLADYFSLEIDEEGNLIGLPLLIDNYVPPLEGLPIFILRLATEVNWDEEKECFESLSKECAMFYSIRKQYISEESTLSGQQSEVPGSIPNSWKWTVEHIVYKALRSHILPPKHFTEDGNILQLANLPDLYKVFERC
partner: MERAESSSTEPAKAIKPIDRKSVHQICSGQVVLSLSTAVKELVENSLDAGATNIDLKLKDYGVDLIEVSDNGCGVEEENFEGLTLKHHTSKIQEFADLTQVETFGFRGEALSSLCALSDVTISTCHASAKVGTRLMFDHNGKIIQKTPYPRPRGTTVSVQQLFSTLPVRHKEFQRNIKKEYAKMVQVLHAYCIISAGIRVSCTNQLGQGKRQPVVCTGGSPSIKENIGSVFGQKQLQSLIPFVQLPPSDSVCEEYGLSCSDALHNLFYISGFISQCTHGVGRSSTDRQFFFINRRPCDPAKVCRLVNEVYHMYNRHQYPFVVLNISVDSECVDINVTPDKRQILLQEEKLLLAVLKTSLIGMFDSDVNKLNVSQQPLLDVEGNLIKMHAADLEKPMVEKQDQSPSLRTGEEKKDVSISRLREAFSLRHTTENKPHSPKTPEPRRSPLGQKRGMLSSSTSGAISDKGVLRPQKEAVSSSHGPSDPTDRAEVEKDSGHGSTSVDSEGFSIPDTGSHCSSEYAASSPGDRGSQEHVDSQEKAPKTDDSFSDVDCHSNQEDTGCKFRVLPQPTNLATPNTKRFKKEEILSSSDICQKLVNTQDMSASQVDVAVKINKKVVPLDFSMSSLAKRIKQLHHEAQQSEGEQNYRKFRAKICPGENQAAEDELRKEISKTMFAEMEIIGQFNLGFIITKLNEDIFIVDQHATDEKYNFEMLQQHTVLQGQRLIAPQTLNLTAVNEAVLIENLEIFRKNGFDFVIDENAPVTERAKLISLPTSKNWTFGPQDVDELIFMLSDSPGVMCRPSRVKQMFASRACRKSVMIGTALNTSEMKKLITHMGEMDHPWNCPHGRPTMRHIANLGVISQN
B2: Actin nucleation-promoting factor WAS (Homo sapiens), P42768 (parent)
chain: MSGGPMGGRPGGRGAPAVQQNIPSTLLQDHENQRLFEMLGRKCLTLATAVVQLYLALPPGAEHWTKEHCGAVCFVKDNPQKSYFIRLYGLQAGRLLWEQELYSQLVYSTPTPFFHTFAGDDCQAGLNFADEDEAQAFRALVQEKIQKRNQRQSGDRRQLPPPPTPANEERRGGLPPLPLHPGGDQGGPPVGPLSLGLATVDIQNPDITSSRYRGLPAPGPSPADKKRSGKKKISKADIGAPSGFKHVSHVGWDPQNGFDVNNLDPDLRSLFSRAGISEAQLTDAETSKLIYDFIEDQGGLEAVRQEMRRQEPLPPPPPPSRGGNQLPRPPIVGGNKGRSGPLPPVPLGIAPPPPTPRGPPPPGRGGPPPPPPPATGRSGPLPPPPPGAGGPPMPPPPPPPPPPPSSGNGPAPPPLPPALVPAGGLAPGGGRGALLDQIRQGIQLNKTPGAPESSALQPPPQSSEGLVGALMHVMQKRSRAIHSSDEGEDQAGDEDEDDEWDD
B3: Tumor protein 63 (Homo sapiens), Q9H3D4 (parent)
chain: MNFETSRCATLQYCPDPYIQRFVETPAHFSWKESYYRSTMSQSTQTNEFLSPEVFQHIWDFLEQPICSVQPIDLNFVDEPSEDGATNKIEISMDCIRMQDSDLSDPMWPQYTNLGLLNSMDQQIQNGSSSTSPYNTDHAQNSVTAPSPYAQPSSTFDALSPSPAIPSNTDYPGPHSFDVSFQQSSTAKSATWTYSTELKKLYCQIAKTCPIQIKVMTPPPQGAVIRAMPVYKKAEHVTEVVKRCPNHELSREFNEGQIAPPSHLIRVEGNSHAQYVEDPITGRQSVLVPYEPPQVGTEFTTVLYNFMCNSSCVGGMNRRPILIIVTLETRDGQVLGRRCFEARICACPGRDRKADEDSIRKQQVSDSTKNGDGTKRPFRQNTHGIQMTSIKKRRSPDDELLYLPVRGRETYEMLLKIKESLELMQYLPQHTIETYRQQQQQQHQHLLQKQTSIQSPSSYGNSSPPLNKMNSMNKLPSVSQLINPQQRNALTPTTIPDGMGANIPMMGTHMPMAGDMNGLSPTQALPPPLSMPSTSHCTPPPPYPTDCSIVSFLARLGCSSCLDYFTTQGLTTIYQIEHYSMDDLASLKIPEQFRHAIWKGILDHRQLHEFSSPSHLLRTPSSASTVSVGSSETRGERVIDAVRFTLRQTISFPPRDEWNDFNFDMDARRNKQQRIKEEGE
partner: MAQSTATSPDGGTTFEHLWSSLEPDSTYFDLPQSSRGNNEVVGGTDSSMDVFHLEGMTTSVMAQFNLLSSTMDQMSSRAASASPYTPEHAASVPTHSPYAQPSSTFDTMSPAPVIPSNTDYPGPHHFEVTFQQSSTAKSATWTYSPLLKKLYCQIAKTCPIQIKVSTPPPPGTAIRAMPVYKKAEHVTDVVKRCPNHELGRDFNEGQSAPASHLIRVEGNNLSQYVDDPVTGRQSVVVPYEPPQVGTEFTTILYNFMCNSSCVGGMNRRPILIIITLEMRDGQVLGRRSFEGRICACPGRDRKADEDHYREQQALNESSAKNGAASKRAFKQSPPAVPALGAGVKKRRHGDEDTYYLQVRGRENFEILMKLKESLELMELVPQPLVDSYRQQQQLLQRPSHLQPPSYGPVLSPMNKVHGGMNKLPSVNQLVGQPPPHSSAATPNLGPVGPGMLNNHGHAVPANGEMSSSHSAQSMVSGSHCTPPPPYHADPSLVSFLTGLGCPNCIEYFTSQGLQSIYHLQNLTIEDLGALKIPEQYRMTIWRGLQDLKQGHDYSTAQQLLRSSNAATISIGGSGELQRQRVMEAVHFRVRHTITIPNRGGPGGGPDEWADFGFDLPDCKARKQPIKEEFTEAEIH

In one assay the parent is B1. The following applies: with pms2_human PMS2, P54278.
Turning to H381Y, the “effect of a mutation on the interaction” value was “with no effect”.

For the variant L259S, the “effect of a mutation on the interaction” value is given as “with no effect”.

Consider I107R, for which the “effect of a mutation on the interaction” value is on record as “disrupting interaction strength”.

N338S: the “effect of a mutation on the interaction” value is listed as “with no effect”.

I68N: the “effect of a mutation on the interaction” value is reported as “disrupting interaction strength”.

Turning to Y293D, the “effect of a mutation on the interaction” value is given as “disrupting interaction strength”.

For the variant Q149H, the “effect of a mutation on the interaction” value is reported as “with no effect”.

The variants in the next assay derive from B2. The following applies: with cdc42_human CDC42, P60953.
Sequence of cdc42_human CDC42, P60953 (P60953 whole entry, looked up): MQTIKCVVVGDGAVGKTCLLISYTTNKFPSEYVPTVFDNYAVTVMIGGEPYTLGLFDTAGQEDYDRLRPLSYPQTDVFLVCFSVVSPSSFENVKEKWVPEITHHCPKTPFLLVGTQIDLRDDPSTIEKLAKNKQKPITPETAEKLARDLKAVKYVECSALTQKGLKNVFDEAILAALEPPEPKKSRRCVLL
Turning to I294T, the “effect of a mutation on the interaction” value is on record as “decreasing interaction strength”.

With E131K, the “effect of a mutation on the interaction” value is “with no effect”.

On to R41G, for which the “effect of a mutation on the interaction” value is “with no effect”.

In the next assay the parent is B3. The following applies: with p73_human TP73, O15350.
Turning to S580P, the “effect of a mutation on the interaction” value is given as “decreasing interaction strength”.

As to I549T, the “effect of a mutation on the interaction” value was “decreasing interaction strength”.

Turning to R594P, the “effect of a mutation on the interaction” value is “decreasing interaction strength”.

As to F565L, the “effect of a mutation on the interaction” value was “decreasing interaction strength”.
